Measurements published in PMC5504686 (Molecular genetics and metabolism, 2017).

T1: alpha subunit of mature G172D Flavobacterium glycosylasparaginase (Flavobacterium, UniProt Q47898 46-196)
T1 sequence (looked up): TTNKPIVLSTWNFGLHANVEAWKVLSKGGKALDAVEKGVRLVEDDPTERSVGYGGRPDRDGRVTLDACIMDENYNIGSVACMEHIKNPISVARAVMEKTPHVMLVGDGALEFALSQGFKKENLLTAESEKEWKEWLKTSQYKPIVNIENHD

B1: mature form of the G172D mutant of Flavobacterium glycosylasparaginase (one alpha and one beta chain) (complex)
chain 1: T1 sequence (looked up)
chain 2: TIGMIALDAQGNLSGACTTSDMAYKMHGRVGDSPIIGAGLFVDNEIGAATATGHGEEVIRTVGTHLVVELMNQGRTPQQACKEAVERIVKIVNRRGKNLKDIQVGFIALNKKGEYGAYCIQDGFNFAVHDQKGNRLETPGFALK
B2: beta subunit of mature G172D Flavobacterium glycosylasparaginase (domain or fragment, UniProt Q47898 197-340, looked up)
chain: B1 chain 2

Legend:
crystal structure = target: the molecule itself; assay: crystal structure
[1] = target: T1, alpha subunit of mature G172D …; assay: crystal structure

Row | Binder | binding result (crystal structure) | binding result [1]
1 | B1 | binds | 
2 | B2 |  | binds
